B1: library; numbered along this chain (parent)
chain: MNIQIGELAKRTACPVVTIRFYEQEGLLPPPGRSRGNFRLYGEEHVERLQFIRHCRSLDMPLSDVRTLLSYRKRPDQDCGEVNMLLDEHIRQVESRIGALLELKHHLVELREACSGARPAQSCGILQGLSDCVCDTRGTTAHPSD

Data set [1] covers variants of B1. In words: sfGFP reporter fluorescence (15 h) (µM FITC); higher = higher leak. The settings on record: library round: Round 1; ligand: none. In short, it runs like this: (§1)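 Readout was endpoint sfGFP fluorescence, converted to µM FITC through standard curves. Reactions were 1 μL of BL21 Star (DE3) PANOx-SP extract with pPbrR-sfGFP reporter, 30 μg/mL GamS and linear PbrR templates normalized to 5 nM, containing 1 µM lead chloride, 30 µM zinc acetate or no metal. Incubation lasted 15 hr at 30 °C, with up to three biological replicates.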

In data set [2] the parent is B1. As to the kind of experiment: sfGFP reporter fluorescence (15 h) (µM FITC); higher = stronger transcriptional activation. Conditions: library round: Round 1. In short, it runs like this: as §1
In data set [3] the parent is B1. In words: sfGFP reporter fluorescence (15 h) (µM FITC); higher = higher leak. The settings on record: library round: Round 0; ligand: none. Here is the method: (§2)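 Cell-free (BL21 Star DE3 extract, PANOx-SP) biosensing: 1 µL Echo-assembled reactions with linear PbrR variant templates (5 nM) and pPbrR-sfGFP reporter, with 1 µM Pb (lead chloride), 30 µM Zn (zinc acetate) or no ligand; endpoint sfGFP fluorescence after 15 h at 30 °C, calibrated as µM FITC. Round 0 library (alanine scan, site saturation, combinatorial) of PbrR from Cupriavidus metallidurans; 2 biological replicates.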

In data set [4] the parent is B1. In words: sfGFP reporter fluorescence (15 h) (µM FITC); higher = stronger transcriptional activation. The settings on record: library round: Round 0. The protocol: as §2

± gives the standard deviation of the averaged measurements.

Regarding D64K N83T R111L, the results for the sfGFP reporter fluorescence in data set [1], in data set [2] (ligand: 1 µM Pb) and in data set [2] (ligand: 30 µM Zn) were 0.0651 ± 0.0024, 0.125 ± 0.0074 and 0.532 ± 0.049, respectively.
Consider F38A, for which the sfGFP reporter fluorescence worked out at 0.064 ± 0.0039 in data set [3], 0.0634 ± 0.0026 in data set [4] (ligand: 1 µM Pb) and 0.379 ± 0.015 in data set [4] (ligand: 30 µM Zn).
In the case of D64K D131C, the values for the sfGFP reporter fluorescence in data set [1], in data set [2] (ligand: 1 µM Pb) and in data set [2] (ligand: 30 µM Zn) were 0.0864 ± 0.0047, 0.282 ± 0.026 and 0.929 ± 0.032, respectively.
Turning to D64T N83T R111I, the sfGFP reporter fluorescence in data set [1] was 0.0783 ± 0.0017; in data set [2] (ligand: 1 µM Pb), 0.156 ± 0.014; in data set [2] (ligand: 30 µM Zn), 1.12 ± 0.13.
As to P15D, the sfGFP reporter fluorescence in data set [3] was 0.066 ± 0.0057; in data set [4] (ligand: 1 µM Pb), 0.0689 ± 0.0021; in data set [4] (ligand: 30 µM Zn) it was 0.286 ± 0.008.
The like results for P15S were, in that order, 0.0621 ± 0.0029, 0.0883 ± 0.0052 and 0.802 ± 0.01.
The matching figures for P15T: 0.0632 ± 0.00078, 0.1006 ± 0.00078 and 0.859 ± 0.058.
Regarding P15V, the values for the sfGFP reporter fluorescence in data set [3], in data set [4] (ligand: 1 µM Pb) and in data set [4] (ligand: 30 µM Zn) were 0.0757 ± 0.00078, 0.07385 ± 0.00026 and 0.212 ± 0.018, respectively.
The like results for L28N were, in that order, 0.06285 ± 0.00026, 0.0592 ± 0.00078 and 0.0605 ± 0.0026.
The matching figures for L28C: 0.06304 ± 0.00052, 0.06487 ± 0.00052 and 0.14 ± 0.0052.
The matching figures for L28F: 0.0603 ± 0.00078, 0.0784 ± 0.0015 and 0.599 ± 0.018.
Take L28A: the figures for the sfGFP reporter fluorescence in data set [3], in data set [4] (ligand: 1 µM Pb) and in data set [4] (ligand: 30 µM Zn) were 0.06322 ± 0.00026, 0.0603 ± 0.00078 and 0.0695 ± 0.0013, respectively.
The like results for P61N K104V L107C G128I were, in that order, 0.289 ± 0.0057, 1.306 ± 0.0026 and 2.66 ± 0.067.
The matching figures for G36R: 0.0597 ± 0.0015, 0.0656 ± 0.0026 and 0.247 ± 0.0088.
The matching figures for G36K: 0.06304 ± 0.00052, 0.09218 ± 0.00026 and 1.18 ± 0.099.
On to G36I, for which the sfGFP reporter fluorescence in data set [3] is 0.05589 ± 0.00026; in data set [4] (ligand: 1 µM Pb), 0.0579 ± 0.0015; in data set [4] (ligand: 30 µM Zn), 0.117 ± 0.0044.
For G36H, the sfGFP reporter fluorescence is 0.0627 ± 0.0015 in data set [3], 0.0793 ± 0.0018 in data set [4] (ligand: 1 µM Pb) and 0.772 ± 0.059 in data set [4] (ligand: 30 µM Zn).
For the variant G36S, the sfGFP reporter fluorescence in data set [3] worked out at 0.0706 ± 0.00078; in data set [4] (ligand: 1 µM Pb) it was 0.119 ± 0.021; in data set [4] (ligand: 30 µM Zn) it was 2.69 ± 0.06.
For G36F, the sfGFP reporter fluorescence in data set [3] stood at 0.0594 ± 0.001; in data set [4] (ligand: 1 µM Pb), 0.0638 ± 0.0015; in data set [4] (ligand: 30 µM Zn), 0.145 ± 0.0029.
Consider D64A C134M, for which the values for the sfGFP reporter fluorescence in data set [1], in data set [2] (ligand: 1 µM Pb) and in data set [2] (ligand: 30 µM Zn) were 0.135 ± 0.0022, 0.233 ± 0.0049 and 1.77 ± 0.21, respectively.
Turning to P29A, the sfGFP reporter fluorescence is 0.0607 ± 0.0044 in data set [3], 0.0704 ± 0.0031 in data set [4] (ligand: 1 µM Pb) and 0.455 ± 0.039 in data set [4] (ligand: 30 µM Zn).
The matching figures for V17A: 0.0568 ± 0.001, 0.0566 ± 0.0013 and 0.622 ± 0.11.
On to K104V G128M D135A, for which the sfGFP reporter fluorescence in data set [1] worked out at 0.103 ± 0.0031; in data set [2] (ligand: 1 µM Pb), 0.291 ± 0.048; in data set [2] (ligand: 30 µM Zn), 1.8 ± 0.11.
Take R20F: the sfGFP reporter fluorescence stood at 0.0566 ± 0.0013 in data set [3], 0.05846 ± 0.00026 in data set [4] (ligand: 1 µM Pb) and 0.0581 ± 0.0039 in data set [4] (ligand: 30 µM Zn).
The matching figures for R20G: 0.05864 ± 0.00052, 0.0563 ± 0.0018 and 0.0625 ± 0.0034.
The matching figures for R20H: 0.0618 ± 0.0044, 0.0647 ± 0.0018 and 0.1048 ± 0.001.
On to E94C K104V, for which the figures for the sfGFP reporter fluorescence in data set [1], in data set [2] (ligand: 1 µM Pb) and in data set [2] (ligand: 30 µM Zn) were 0.0704 ± 0.0013, 0.072 ± 0.0039 and 0.184 ± 0.002, respectively.
The like results for P61D D64K L107C were, in that order, 1.58 ± 0.082, 1.54 ± 0.35 and 2.2 ± 0.1.
The matching figures for K104V V108K: 0.109 ± 0.0044, 0.316 ± 0.063 and 1.44 ± 0.15.
Consider M60L D64K L107C, for which the sfGFP reporter fluorescence in data set [3] worked out at 5.66 ± 0.2; in data set [4] (ligand: 1 µM Pb), 5.25 ± 0.066; in data set [4] (ligand: 30 µM Zn), 5.27 ± 0.24.
The matching figures for C79Q: 0.05901 ± 0.00052, 0.05937 ± 0.00052 and 0.0566 ± 0.00078.
Turning to C79W, the values for the sfGFP reporter fluorescence in data set [3], in data set [4] (ligand: 1 µM Pb) and in data set [4] (ligand: 30 µM Zn) were 0.0583 ± 0.0021, 0.0588 ± 0.0013 and 0.0548 ± 0.0034, respectively.
The like results for C79V were, in that order, 0.0572 ± 0.0015, 0.0586 and 0.05552 ± 0.00026.
For M60L K104V, the sfGFP reporter fluorescence in data set [3] amounted to 0.255 ± 0.0057; in data set [4] (ligand: 1 µM Pb) it was 1.1 ± 0.067; in data set [4] (ligand: 30 µM Zn), 3.17 ± 0.1.
Turning to G128I D135A, the figures for the sfGFP reporter fluorescence in data set [1], in data set [2] (ligand: 1 µM Pb) and in data set [2] (ligand: 30 µM Zn) were 0.0699 ± 0.0036, 0.12 ± 0.0083 and 0.64 ± 0.032, respectively.
In the case of E112H, the figures for the sfGFP reporter fluorescence in data set [3], in data set [4] (ligand: 1 µM Pb) and in data set [4] (ligand: 30 µM Zn) were 0.05882 ± 0.00026, 0.077 ± 0.0057 and 0.424 ± 0.012, respectively.
The like results for E112I were, in that order, 0.0542 ± 0.0015, 0.06175 ± 0.00026 and 0.282 ± 0.021.
As for L110I, the sfGFP reporter fluorescence in data set [3] was 0.05571 ± 0.00052; in data set [4] (ligand: 1 µM Pb) it was 0.0579 ± 0.0015; in data set [4] (ligand: 30 µM Zn), 0.542 ± 0.036.
Consider L110M, for which the results for the sfGFP reporter fluorescence in data set [3], in data set [4] (ligand: 1 µM Pb) and in data set [4] (ligand: 30 µM Zn) were 0.0568 ± 0.0015, 0.05644 ± 0.00052 and 0.0574 ± 0.0023, respectively.
The like results for L110E were, in that order, 0.059 ± 0.001, 0.0614 ± 0.0013 and 0.0579 ± 0.001.
The matching figures for L110W: 0.057 ± 0.0018, 0.0572 ± 0.0015 and 0.0537 ± 0.0023.
Take N83I K104V: the values for the sfGFP reporter fluorescence in data set [1], in data set [2] (ligand: 1 µM Pb) and in data set [2] (ligand: 30 µM Zn) were 0.0628 ± 0.0011, 0.356 ± 0.026 and 0.0679 ± 0.0048, respectively.
Turning to C123M, the figures for the sfGFP reporter fluorescence in data set [3], in data set [4] (ligand: 1 µM Pb) and in data set [4] (ligand: 30 µM Zn) were 0.057 ± 0.0013, 0.0577 ± 0.00078 and 0.0544 ± 0.0034, respectively.
The like results for C123G were, in that order, 0.0535 ± 0.001, 0.0552 ± 0.0013 and 0.0502 ± 0.0015.
The like results for C123T were, in that order, 0.0586 ± 0.0021, 0.0572 ± 0.0015 and 0.0568 ± 0.0036.

Source of the values: the supplement of paper PMC12783771.
